Measurements reported in IntAct's records for PubMed 21455181.

B1: Sharpin (Homo sapiens), Q9H0F6 (parent)
chain: MAPPAGGAAAAASDLGSAAVLLAVHAAVRPLGAGPDAEAQLRRLQLSADPERPGRFRLELLGAGPGAVNLEWPLESVSYTIRGPTQHELQPPPGGPGTLSLHFLNPQEAQRWAVLVRGATVEGQNGSKSNSPPALGPEACPVSLPSPPEASTLKGPPPEADLPRSPGNLTEREELAGSLARAIAGGDEKGAAQVAAVLAQHRVALSVQLQEACFPPGPIRLQVTLEDAASAASAASSAHVALQVHPHCTVAALQEQVFSELGFPPAVQRWVIGRCLCVPERSLASYGVRQDGDPAFLYLLSAPREAPATGPSPQHPQKMDGELGRLFPPSLGLPPGPQPAASSLPSPLQPSWSCPSCTFINAPDRPGCEMCSTQRPCTWDPLAAAST

Variants of: B1
Conditions: with rnf31_human RNF31, Q96EP0
rnf31_human RNF31, Q96EP0, sequence (Q96EP0 whole entry): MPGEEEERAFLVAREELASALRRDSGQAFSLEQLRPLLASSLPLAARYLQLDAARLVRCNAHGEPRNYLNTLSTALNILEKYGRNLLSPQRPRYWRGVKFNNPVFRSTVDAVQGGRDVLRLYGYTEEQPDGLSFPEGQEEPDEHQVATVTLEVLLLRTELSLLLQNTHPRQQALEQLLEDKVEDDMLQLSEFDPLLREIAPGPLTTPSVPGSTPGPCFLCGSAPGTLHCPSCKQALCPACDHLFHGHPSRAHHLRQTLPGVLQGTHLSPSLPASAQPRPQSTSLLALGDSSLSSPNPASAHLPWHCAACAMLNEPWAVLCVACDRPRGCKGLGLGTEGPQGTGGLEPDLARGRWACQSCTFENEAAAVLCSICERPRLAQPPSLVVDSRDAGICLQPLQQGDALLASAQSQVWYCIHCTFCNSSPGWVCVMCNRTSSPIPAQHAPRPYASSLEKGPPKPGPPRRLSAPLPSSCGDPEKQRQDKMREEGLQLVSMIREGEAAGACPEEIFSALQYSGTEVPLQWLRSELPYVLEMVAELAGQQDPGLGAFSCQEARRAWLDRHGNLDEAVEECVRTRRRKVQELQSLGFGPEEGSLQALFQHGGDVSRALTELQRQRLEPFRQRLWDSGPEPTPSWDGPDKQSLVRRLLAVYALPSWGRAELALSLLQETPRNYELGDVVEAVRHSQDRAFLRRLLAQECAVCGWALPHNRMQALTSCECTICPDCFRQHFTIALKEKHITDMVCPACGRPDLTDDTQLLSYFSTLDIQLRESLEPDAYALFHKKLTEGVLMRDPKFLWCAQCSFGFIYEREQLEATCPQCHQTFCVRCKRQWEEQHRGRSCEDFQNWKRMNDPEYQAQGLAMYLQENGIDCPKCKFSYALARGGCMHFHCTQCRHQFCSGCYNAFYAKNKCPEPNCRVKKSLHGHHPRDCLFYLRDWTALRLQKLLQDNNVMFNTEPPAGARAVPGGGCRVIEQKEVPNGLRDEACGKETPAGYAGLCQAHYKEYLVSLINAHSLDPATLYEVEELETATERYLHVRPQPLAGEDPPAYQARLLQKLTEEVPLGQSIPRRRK

Variant	effect of a mutation on the interaction
MAPPAGGAAAAASDLGSAAVLLAVHAAVRPLGAGPDAEAQLRRLQLSADPERPGRFRLELLGAGPGAVNLEWPLESVSYTIRGPTQHELQPPPGGPGTLSLHFLNPQEAQRWAVLVRGATVEGQNGSKSNSPPALGPEACPVSLPSPPEASTLKGPPPEADLPRSPGNLTEREELAGSLARAIAGGDEKGAAQVAAVLAQHRVALSVQLQEACFPPGPIRLQVTLEDAASAASAASSAHVALQVHPHCTVAALQEQVFSELGFPPAVQRWVAGRCLCVPERSLASYGVRQDGDPAFLYLLSAPREAPATGPSPQHPQKMDGELGRLFPPSLGLPPGPQPAASSLPSPLQPSWSCPSCTFINAPDRPGCEMCSTQRPCTWDPLAAAST [I272A]	disrupting interaction
